# Laboratory results from patent US20240392271, “ENGINEERED CASX REPRESSOR SYSTEMS” (Scribe Therapeutics Inc., published 2024).
# T1: ELXR4-ZNF10 (#4.B) (synthetic construct)
# T1 chain: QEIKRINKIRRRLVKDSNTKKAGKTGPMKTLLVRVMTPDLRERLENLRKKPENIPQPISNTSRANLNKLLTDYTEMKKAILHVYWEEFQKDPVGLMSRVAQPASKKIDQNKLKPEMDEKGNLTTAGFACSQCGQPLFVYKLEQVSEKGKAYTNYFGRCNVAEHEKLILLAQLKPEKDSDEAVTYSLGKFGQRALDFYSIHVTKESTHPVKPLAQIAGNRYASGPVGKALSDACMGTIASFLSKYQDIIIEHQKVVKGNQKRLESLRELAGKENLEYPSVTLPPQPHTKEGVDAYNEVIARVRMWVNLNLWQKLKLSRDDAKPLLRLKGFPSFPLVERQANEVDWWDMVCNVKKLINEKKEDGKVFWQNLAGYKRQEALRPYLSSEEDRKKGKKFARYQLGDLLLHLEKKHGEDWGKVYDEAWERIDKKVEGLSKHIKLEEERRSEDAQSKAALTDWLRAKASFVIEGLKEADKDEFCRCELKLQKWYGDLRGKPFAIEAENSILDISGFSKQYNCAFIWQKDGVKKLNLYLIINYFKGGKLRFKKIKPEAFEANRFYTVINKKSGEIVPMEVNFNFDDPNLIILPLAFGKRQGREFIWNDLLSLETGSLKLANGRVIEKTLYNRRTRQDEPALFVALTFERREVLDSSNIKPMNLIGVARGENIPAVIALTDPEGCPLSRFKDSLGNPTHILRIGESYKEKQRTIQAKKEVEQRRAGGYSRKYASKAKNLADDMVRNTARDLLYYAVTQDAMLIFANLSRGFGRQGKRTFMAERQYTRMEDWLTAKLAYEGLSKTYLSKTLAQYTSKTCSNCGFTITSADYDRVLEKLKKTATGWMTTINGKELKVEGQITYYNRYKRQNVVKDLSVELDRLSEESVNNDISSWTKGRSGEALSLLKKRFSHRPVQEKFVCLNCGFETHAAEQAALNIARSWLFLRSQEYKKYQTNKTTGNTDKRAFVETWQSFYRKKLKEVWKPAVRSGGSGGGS
# T2: ELXR4-ZIM3 (#4.A) (synthetic construct)
# T2 chain: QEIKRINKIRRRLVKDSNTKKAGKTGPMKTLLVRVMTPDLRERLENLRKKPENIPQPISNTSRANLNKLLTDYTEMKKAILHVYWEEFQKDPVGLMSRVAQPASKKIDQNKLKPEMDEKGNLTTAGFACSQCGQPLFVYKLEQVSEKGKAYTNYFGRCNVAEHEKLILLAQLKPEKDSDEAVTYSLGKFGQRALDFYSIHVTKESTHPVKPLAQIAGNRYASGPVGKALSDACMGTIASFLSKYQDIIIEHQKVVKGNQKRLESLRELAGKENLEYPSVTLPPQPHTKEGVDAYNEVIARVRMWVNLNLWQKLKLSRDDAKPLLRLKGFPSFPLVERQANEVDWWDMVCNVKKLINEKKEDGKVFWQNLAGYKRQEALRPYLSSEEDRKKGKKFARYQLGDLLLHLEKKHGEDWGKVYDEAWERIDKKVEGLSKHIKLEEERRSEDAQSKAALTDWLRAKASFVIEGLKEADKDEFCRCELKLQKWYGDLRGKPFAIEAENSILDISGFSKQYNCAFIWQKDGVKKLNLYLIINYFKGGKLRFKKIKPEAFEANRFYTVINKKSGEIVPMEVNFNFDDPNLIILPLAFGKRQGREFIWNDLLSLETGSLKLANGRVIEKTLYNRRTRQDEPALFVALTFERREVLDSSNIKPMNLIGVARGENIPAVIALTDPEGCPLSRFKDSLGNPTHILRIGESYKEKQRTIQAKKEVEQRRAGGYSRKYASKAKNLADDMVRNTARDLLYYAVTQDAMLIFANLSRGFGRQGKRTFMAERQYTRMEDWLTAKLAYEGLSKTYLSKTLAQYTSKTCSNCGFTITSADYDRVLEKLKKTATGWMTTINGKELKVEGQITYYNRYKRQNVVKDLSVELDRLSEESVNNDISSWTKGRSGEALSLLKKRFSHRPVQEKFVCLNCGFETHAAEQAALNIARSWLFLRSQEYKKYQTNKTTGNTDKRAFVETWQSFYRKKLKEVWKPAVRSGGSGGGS
# T3: ELXR2-ZIM3 (#2.A) (synthetic construct)
# T3 chain: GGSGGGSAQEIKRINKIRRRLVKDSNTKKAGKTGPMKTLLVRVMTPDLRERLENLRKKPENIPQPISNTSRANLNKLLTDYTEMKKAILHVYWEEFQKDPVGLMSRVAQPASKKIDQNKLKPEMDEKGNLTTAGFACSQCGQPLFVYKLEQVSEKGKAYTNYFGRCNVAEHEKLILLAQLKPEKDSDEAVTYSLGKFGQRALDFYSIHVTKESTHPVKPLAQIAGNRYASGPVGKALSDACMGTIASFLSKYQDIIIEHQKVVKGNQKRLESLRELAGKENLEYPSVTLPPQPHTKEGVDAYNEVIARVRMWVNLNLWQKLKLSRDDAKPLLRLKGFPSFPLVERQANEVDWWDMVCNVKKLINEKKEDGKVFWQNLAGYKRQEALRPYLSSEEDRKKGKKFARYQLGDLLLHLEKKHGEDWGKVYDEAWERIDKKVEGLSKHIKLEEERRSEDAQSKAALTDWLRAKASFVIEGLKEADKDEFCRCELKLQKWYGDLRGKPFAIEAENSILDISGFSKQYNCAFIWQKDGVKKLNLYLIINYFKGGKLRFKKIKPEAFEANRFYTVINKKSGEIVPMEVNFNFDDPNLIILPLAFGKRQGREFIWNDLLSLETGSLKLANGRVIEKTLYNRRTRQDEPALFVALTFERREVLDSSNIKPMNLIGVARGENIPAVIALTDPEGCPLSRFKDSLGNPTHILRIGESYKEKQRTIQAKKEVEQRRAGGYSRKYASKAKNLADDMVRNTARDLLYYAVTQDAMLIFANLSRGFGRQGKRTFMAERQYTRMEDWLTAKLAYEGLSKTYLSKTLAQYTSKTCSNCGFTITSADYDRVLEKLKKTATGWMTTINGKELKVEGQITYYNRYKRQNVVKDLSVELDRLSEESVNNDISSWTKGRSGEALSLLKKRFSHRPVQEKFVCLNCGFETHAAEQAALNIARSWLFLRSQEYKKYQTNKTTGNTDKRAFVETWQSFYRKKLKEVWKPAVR
# B1: gRNA scaffold 174 + spacer 7.37 ; B2M target 7.37 (ssRNA ; dsDNA)
# RNA: ACUGGCGCUUUUAUCUGAUUACUUUGAGAGCCAUCACCAGCGACUAUGUCGUAGUGGGUAAAGCUCCCUCUUCGGAGGGAGCAUCAAAGGGCCGAGAUGUCUCGCUCCG
# DNA 1: GGCCGAGATGTCTCGCTCCG
# DNA 2: CGGAGCGAGACATCTCGGCC
# Key:
# ELXR4-ZNF10 (#4.B) = target: T1, ELXR4-ZNF10 (#4.B); assay: cell_activity; PAM TTC; day 73; conditions: tags: DNMT3A CD, DNMT3L ID, ZNF10 KRAB fusion, NLS
# ELXR4-ZIM3 (#4.A) = target: T2, ELXR4-ZIM3 (#4.A); assay: cell_activity; PAM TTC; day 73; conditions: tags: DNMT3A CD, DNMT3L ID, ZIM3 KRAB fusion, NLS
# ELXR5-ZIM3 (#5.A) = ELXR5-ZIM3 (#5.A) (synthetic construct); assay: cell_activity; PAM TTC; day 73; conditions: tags: DNMT3A CD, DNMT3L ID, ZIM3 KRAB fusion, NLS
# ELXR5-ZIM3 (#5.A) (synthetic construct), sequence (chain, as listed by the source): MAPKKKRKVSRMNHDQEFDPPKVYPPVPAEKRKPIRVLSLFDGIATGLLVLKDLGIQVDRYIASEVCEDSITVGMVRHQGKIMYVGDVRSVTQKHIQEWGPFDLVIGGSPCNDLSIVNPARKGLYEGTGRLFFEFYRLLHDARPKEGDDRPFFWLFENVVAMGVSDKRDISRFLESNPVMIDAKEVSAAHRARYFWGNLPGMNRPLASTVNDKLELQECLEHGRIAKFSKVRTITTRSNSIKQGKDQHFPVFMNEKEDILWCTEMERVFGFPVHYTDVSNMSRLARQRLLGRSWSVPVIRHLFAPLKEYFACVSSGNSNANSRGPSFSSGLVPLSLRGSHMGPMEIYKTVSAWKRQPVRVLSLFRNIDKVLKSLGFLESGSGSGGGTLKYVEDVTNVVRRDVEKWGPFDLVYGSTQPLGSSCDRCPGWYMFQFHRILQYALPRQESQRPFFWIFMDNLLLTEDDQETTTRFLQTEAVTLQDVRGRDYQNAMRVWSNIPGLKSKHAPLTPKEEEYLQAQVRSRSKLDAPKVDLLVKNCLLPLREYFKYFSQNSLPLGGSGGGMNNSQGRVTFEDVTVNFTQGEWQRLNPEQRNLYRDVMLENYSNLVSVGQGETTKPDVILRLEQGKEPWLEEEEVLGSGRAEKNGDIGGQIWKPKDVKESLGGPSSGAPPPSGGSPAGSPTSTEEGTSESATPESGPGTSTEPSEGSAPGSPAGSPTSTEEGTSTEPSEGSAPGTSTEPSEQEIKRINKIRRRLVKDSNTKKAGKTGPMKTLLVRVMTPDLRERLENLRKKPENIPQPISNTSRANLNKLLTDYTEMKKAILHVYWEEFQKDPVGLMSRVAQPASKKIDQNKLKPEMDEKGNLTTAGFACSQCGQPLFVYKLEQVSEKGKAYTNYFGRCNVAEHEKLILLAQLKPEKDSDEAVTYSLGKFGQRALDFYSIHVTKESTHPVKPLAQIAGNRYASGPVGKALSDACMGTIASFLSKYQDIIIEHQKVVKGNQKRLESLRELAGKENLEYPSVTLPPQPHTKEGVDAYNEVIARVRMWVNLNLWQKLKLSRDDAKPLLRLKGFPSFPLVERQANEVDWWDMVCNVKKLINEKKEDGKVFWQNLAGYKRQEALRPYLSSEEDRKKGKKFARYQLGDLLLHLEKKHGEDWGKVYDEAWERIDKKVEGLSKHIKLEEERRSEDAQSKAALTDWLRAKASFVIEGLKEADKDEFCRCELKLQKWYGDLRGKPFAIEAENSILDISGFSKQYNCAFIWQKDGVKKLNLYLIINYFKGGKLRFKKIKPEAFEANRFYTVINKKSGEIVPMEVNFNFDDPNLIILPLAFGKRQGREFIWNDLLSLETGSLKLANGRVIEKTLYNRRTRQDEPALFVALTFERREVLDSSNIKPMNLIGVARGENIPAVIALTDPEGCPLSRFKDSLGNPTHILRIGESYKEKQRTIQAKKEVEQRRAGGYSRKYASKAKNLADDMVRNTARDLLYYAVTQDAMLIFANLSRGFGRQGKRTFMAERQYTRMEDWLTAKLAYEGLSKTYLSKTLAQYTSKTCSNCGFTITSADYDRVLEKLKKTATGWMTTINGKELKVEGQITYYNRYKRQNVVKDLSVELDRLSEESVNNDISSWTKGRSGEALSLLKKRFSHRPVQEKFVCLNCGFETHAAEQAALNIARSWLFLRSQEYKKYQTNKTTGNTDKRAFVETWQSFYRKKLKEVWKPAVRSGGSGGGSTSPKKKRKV
# ELXR5-ZNF10 (#5.B) = ELXR5-ZNF10 (#5.B) (synthetic construct); assay: cell_activity; PAM TTC; day 73; conditions: tags: DNMT3A CD, DNMT3L ID, ZNF10 KRAB fusion, NLS
# ELXR5-ZNF10 (#5.B) (synthetic construct), sequence (chain, as listed by the source): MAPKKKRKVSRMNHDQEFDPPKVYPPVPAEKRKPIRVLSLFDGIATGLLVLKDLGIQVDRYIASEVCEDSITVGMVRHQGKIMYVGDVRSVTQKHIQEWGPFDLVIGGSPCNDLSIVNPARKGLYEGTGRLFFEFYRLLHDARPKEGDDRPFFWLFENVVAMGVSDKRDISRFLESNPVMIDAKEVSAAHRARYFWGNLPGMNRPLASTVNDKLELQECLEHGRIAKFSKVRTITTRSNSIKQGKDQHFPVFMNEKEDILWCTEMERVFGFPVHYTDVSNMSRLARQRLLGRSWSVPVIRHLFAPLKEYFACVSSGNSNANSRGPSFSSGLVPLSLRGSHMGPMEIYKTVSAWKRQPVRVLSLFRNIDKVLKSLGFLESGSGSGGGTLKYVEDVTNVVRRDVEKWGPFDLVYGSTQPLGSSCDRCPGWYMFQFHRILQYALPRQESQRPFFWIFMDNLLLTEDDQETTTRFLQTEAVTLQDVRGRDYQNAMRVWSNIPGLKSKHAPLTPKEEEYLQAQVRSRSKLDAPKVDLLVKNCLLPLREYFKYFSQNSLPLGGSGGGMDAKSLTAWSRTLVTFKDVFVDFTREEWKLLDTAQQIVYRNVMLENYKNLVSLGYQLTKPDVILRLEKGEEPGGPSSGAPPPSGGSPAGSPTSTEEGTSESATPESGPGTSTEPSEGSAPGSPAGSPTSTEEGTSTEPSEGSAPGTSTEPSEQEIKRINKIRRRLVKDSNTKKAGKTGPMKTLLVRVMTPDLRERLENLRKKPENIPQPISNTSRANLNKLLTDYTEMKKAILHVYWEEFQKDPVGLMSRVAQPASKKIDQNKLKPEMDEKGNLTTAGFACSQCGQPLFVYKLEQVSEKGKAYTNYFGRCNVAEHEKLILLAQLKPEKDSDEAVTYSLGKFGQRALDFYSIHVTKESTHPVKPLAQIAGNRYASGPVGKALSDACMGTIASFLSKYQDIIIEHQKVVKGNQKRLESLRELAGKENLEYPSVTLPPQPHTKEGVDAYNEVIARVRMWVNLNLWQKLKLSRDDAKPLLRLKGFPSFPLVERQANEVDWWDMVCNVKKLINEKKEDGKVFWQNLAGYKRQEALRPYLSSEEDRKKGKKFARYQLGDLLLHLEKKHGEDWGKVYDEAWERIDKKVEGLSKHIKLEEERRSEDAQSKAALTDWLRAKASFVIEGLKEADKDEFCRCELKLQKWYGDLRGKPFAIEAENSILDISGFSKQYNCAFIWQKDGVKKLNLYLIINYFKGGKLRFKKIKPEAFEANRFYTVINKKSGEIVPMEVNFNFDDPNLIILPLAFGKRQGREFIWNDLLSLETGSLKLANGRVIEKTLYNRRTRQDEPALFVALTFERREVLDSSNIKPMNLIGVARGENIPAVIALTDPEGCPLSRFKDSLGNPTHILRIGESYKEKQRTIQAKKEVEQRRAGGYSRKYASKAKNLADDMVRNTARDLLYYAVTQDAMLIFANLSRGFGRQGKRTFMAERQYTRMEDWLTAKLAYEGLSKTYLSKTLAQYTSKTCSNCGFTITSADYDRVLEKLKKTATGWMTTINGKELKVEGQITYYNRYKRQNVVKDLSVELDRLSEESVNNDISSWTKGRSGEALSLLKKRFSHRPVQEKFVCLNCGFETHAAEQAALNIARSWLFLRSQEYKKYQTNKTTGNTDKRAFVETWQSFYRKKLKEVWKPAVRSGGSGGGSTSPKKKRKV
# ELXR2-ZIM3 (#2.A) = target: T3, ELXR2-ZIM3 (#2.A); assay: cell_activity; PAM TTC; day 50; conditions: tags: DNMT3A CD, DNMT3L ID, ZIM3 KRAB fusion, NLS
binder,measurement,setting,value
B1,activity,ELXR4-ZNF10 (#4.B),55.2 % HLA-negative cells
same,activity,ELXR4-ZIM3 (#4.A),69 % HLA-negative cells
same,activity,ELXR5-ZIM3 (#5.A),74.9 % HLA-negative cells
same,activity,ELXR5-ZNF10 (#5.B),60.8 % HLA-negative cells
same,activity,ELXR2-ZIM3 (#2.A),58.8 % HLA-negative cells
